Test results: US12365732 (23ANDME, dated 2025)
Positions count from the first letter of the chain named. Names may count otherwise.

T1: cynomolgus monkey CD96 on cynomolgus monkey PBMCs (cynomolgus monkey, UniProt A0A2K5TWV6 22-569)
T1 construct: whole, on cells
T1 sequence: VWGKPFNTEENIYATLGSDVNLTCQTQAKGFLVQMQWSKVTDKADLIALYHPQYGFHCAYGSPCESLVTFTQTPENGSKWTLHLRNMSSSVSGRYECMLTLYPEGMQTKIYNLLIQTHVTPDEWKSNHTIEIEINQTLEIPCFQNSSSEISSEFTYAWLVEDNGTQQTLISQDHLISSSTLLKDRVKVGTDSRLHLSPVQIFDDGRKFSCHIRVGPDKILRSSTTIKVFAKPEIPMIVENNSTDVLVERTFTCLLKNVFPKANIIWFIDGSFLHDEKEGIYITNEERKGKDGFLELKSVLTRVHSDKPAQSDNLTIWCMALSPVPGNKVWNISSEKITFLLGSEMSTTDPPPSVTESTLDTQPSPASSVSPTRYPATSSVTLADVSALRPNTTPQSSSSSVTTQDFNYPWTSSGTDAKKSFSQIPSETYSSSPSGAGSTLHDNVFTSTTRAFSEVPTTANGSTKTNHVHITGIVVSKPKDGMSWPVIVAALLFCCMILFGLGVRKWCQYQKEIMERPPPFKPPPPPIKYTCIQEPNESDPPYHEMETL

T2: cy-CD96 (soluble, extracellular domain) (cynomolgus monkey, UniProt P40200 22-516 (human entry), biotinylated in Octet and blocking ELISA)
T2 construct: the assays name only cy-CD96; also called biotinylated cy-CD96
T2 chain: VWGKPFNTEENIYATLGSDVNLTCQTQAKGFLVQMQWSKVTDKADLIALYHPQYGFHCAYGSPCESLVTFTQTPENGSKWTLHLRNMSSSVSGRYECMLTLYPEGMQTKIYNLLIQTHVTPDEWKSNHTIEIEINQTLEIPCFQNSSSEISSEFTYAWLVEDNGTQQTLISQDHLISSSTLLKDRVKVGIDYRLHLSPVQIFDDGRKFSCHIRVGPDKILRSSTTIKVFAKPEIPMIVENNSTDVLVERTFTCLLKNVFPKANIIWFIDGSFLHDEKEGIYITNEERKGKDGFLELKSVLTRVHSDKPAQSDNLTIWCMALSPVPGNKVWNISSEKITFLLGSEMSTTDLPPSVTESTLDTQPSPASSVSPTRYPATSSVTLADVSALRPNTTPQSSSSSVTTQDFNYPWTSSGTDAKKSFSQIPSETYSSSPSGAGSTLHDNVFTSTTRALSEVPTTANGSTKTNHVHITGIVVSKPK

B1: mAb1.v7.NGS9 IgG (antibody, V domains shown)
VH: EVQLVQSGAEVKKPGASVKVSCKASGFTFTNNFMHWVRQAPGQGLEWIGMIHANSGITNINEKFKNRVTMTTDTSTSTAYMELRSLRSEDTAVYYCRSDGVYEGYFDYWGQGTLVTVSS
VL: DIQLTQSPSSLSASVGDRVTITCKASQNVGTAIVWYQQKPGKAPKVLIYSASTRYTGVPSRFSGSGSGTDFTLTISSLQPEDFATYYCQQYSSSPLTFGQGTKVEIKG
notes: human IgG1 N297G
B2: mAb1.v7.NGS11 IgG (antibody, V domains shown)
VH: B1 VH with M50F
VL: B1 VL
notes: human IgG1 N297G
B3: mAb1.v7.NGS10 IgG (antibody, V domains shown)
VH: B1 VH with M50F, V101I
VL: B1 VL
notes: human IgG1 N297G
B4: h10G1 IgG (humanized 10G1) (antibody, V domains shown)
VH: EIQLVQSGSELKKPGASVKVSCKASGYPFTTYGMSWVRQAPGQGLEWMGWINTDSGVPTYADDFKGRFVFSLDTSVSTAYLQISSLKAEDTAVYFCARNIYYGWGNFDYWGQGTLVTVSS
VL: EIVMTQSPDFQSVTPKEKVTITCRASQDIYRNLHWYQQKPDQTPKLLIKHASDSISGIPSRFSGSGSGTDFTLTINSLEAEDAAAYYCLQGYSMPYTFGGGTKVEIKG
notes: human IgG1 N297G
B5: mAb1.v7.2 Fab (Fab, V domains shown)
VH: B1 VH with F33W, M34R, A53F
VL: DIQLTQSPSSLSASVGDRVTITCKASQNVGTAIVWYQQKPGKAPKVLIYSASTRYTGVPSRFSGSGSGTDFTLTISSLQPEDFATYYCQQYSSSPLTFGQGTKVEIK
notes: also called M34R/P52aF/T97V
B6: mAb1.v7.48 Fab (Fab, V domains shown)
VH: B1 VH with N32R, F33W, A53H
VL: B5 VL
notes: also called N32R/P52aH/T97V
B7: mAb1.v7.9 Fab (Fab, V domains shown)
VH: B1 VH with F33W, M34R, A53M
VL: B5 VL
notes: also called M34R/P52aM/T97V
B8: mAb1.v7.16 Fab (Fab, V domains shown)
VH: B1 VH with F33W, M34R, A53P
VL: B5 VL
notes: also called M34R/T97V
B9: mAb1.v7.70 Fab (Fab, V domains shown)
VH: B1 VH with N32R, F33W
VL: B5 VL
notes: also called N32R/P52aA/T97V

Target: T1, cynomolgus monkey CD96 on cynomolgus …
Assay: FACS, Ab 80 nM
Procedure: The ability of the anti-CD96 antibodies to bind primary immune cells from human and cynomolgus monkey with lower level of receptor expression was measured. Human PBMCs (StemCell Technologies, catalog #70025) and cynomolgus monkey PBMCs (Primate Biologicals, catalog #CM-MC) were incubated with human TruStain FcX (Biolegend, catalog #422302) for 10 minutes at 4° C., followed by incubation with an anti-CD96 antibody for 20 minutes at 4° C. Cells were washed and the anti-CD96 antibody binding was detected by incubation with anti-mouse IgG-PE (Thermo Fisher, catalog #M30204) or anti-human IgG (Fab) 2-PE (Thermo Fisher, catalog #H10104) for 20 minutes at 4° C. Cells were washed, and immune subtypes were labeled with anti-CD3 (BD, catalog #557705), anti-CD4 (Biolegend, catalog #317424) and anti-CD8 (BD, catalog #557760) for 20 minutes at 4° C. Cell binding was analyzed by flow cytometry with a CytoFLEX (Beckman Coulter). Binding curves were calculated as a percentage of cells positive for bound antibody in the cell type of interest.

Binder | % positive [%]
B1 | 73.8
B2 | 81.9
B3 | 75.2
B4 | 68.3

Target: T2, cy-CD96 (soluble, extracellular domain)
Assay: ELISA, blocks biotin-CD96 binding to coated hu-CD155-mFc
Procedure: The selected 5 affinity matured Fab variants of mAb1.v7 Fab were assayed for blocking of human CD155 (hu-CD155) receptor by ELISA as follows. Briefly, 96-well MAXISORP® flat bottom plates (Thermofisher, Cat #439454) were coated overnight at 4° C. with 2 µg/mL goat anti-mouse Fc (Thermofisher, Cat #31168) in PBS. After removing the coating solution, unspecific binding was blocked with PBS containing 1% bovine serum albumin (BSA) and incubation at room temperature for one hour. Plates were then washed five times in PBS with 0.05% TWEEN®-20 (wash buffer) and added […] hu-CD155-mFc in PBS for 1 hour in room temperature. During blocking period, 50 µL/well of 4 nM biotinylated hu-CD96 or 40 nM biotinylated cy-CD96 with serial dilution of the Fab variants 50 µL/well (starting at 2 µM, 1:3 dilution) for two hours at room temperature with PBS containing 0.5% BSA and 0.05% Tween 20 (ELISA buffer) in NUNC F plate (Thermofisher, Cat #269620). Then transferred the antigen-antibody mix solution 80 µL/well into hu-CD155-mFc coated wells at room temperature for 15 min. Plates were then washed with wash buffer to which was added 50 µL/well Streptavidin poly-HRP (Thermofisher, Cat #21140) diluted 1:5000 in ELISA buffer at room temperature for one hour with agitation. […] Enzymatic color development was stopped with 50 µL/well of TMB stop solution (VWR, Cat #95059-200). Plates were analyzed with a SpectraMax i3X plate reader (Molecular Devices) at 450 nm. […] The blocking $IC50$ values for the mAbv1.7 and the 5 selected affinity matured Fab variants (mAb1.v7.2, mAb1.v7.9, mAb1.v7.16, mAb1.v7.48, mAb1.v7.70) are summarized in Table 10 (above).

Binder | IC50 [nM]
B5 | 2.17
B6 | 4.8
B7 | 3.18
B8 | 1.42
B9 | 2
